The series addresses STAT3-GFP (STAT3-EGFP fusion, unphosphorylated) (UniProt P40763). Kind of series: MST.

Chain of STAT3-GFP (STAT3-EGFP fusion, unphosphorylated) (P40763 whole entry, the tested form may be a part): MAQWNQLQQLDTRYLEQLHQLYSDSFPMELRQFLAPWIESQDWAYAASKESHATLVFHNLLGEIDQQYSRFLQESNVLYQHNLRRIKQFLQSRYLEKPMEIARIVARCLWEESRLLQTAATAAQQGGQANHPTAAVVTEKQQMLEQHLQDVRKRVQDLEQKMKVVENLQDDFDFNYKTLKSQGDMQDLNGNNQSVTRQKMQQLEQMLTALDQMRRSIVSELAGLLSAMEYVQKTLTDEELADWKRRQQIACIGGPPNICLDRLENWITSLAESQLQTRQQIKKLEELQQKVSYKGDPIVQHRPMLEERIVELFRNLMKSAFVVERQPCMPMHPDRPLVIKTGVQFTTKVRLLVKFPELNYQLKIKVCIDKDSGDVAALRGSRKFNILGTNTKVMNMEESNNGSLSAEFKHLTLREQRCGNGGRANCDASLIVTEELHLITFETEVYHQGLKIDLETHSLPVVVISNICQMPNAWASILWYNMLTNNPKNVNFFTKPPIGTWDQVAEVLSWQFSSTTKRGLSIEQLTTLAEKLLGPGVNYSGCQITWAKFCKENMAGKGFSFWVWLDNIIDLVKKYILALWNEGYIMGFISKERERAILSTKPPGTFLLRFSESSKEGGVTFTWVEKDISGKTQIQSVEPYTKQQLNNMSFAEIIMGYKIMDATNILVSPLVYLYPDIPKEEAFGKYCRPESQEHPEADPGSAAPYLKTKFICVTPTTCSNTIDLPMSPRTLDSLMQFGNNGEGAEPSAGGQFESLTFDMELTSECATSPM

What is called Kd is the constant that tells how readily two partners part at equilibrium. Low readings indicate higher affinity, high ones lower affinity. As to “AAAACAAAACGAAACAAACAAACTA (double strand) [S+100]”, the Kd was 23.3 µM.

The sequence “GTTTCCGGGAAAGCAGTAGGTTTCCGGGAAAG (double strand) [GAS]” gave a Kd of 37.9 µM.
